Laboratory results as given in patent US20180127476A1 (Janssen / Centocor, published 2018).
Numbered stars: 1 amine (or outer) side, 2 acyl side, 3 side chain; on linkers, the order of the positions; unused ones are H or OH. Bridge positions count the residues as written; N and C are the ends. Square brackets hold non-standard residues; d marks the D form. Side chains are listed from the residue outwards. * marks the point of attachment. m‑COPhCH2 = meta-toluoyl group on the Ile3 alpha-amine, its methyl linked by thioether to hCys31, O=C(c1cccc(C[*:3])c1)[*:2]; C18 diacid = O=C(O)CCCCCCCCCCCCCCCCC(=O)*; γGlu = O=C(O)[C@H](CCC(=O)[*:2])N[*:1]; Palmitoyl = CCCCCCCCCCCCCCCC(=O)*; hCys = N[C@@H](CCS)C(=O)O; AEEA = NCCOCCOCC(=O)O

T1: human NPY2R Gi-protein coupled receptor (human, UniProt P49146 1-381)
T1 sequence (looked up): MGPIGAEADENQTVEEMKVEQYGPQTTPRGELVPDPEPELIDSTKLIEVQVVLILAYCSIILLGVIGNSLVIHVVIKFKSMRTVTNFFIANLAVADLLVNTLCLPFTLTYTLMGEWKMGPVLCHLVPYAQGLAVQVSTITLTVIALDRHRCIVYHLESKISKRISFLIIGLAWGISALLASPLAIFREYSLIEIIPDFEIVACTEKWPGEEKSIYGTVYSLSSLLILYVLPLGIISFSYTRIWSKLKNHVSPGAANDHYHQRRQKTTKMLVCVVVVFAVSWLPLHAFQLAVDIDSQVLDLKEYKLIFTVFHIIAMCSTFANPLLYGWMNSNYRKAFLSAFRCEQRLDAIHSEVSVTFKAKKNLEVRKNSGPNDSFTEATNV


Molecular target: T1, human NPY2R Gi-protein coupled receptor
Assay: cell-based or functional assay

| Binder | Y2R EC50 (nM), inhibition of forskolin-induced cAMP (hY2 assay) |
| --- | --- |
| GISPEAPGEKASPEELNRYYASLRHYLNEVTRQRY-NH2 (lactam N-29; also: psi-(R35,Y36) reduced amide bond) [Cyclic PYY Analog SEQ ID NO:70] | 0.02 nM |
| {m‑COPhCH2}-IEPEAPGEDASPEELNRYYASLRAYLNK([γGlu-Palmitoyl])[hCys]TRQRY-NH2 (bridge N-29; not fully specified (bridges)) [Cyclic PYY Analog SEQ ID NO:22] | 4.4 nM |
| GISPEAPGEK([AEEA-AEEA-γGlu-C18 diacid])ASPEELNRYYASLRHYLNEVTRQRY-NH2 (lactam N-29; also: psi-(R35,Y36) reduced amide bond) [Cyclic PYY Analog SEQ ID NO:72] | 1.75 nM |
| {m‑COPhCH2}-IAPEAPGEDASPEELNRYYASLRAYLNK([γGlu-Palmitoyl])[hCys]TRQRY-NH2 (bridge N-29; not fully specified (bridges)) [Cyclic PYY Analog SEQ ID NO:21] | 0.49 nM |
